The values that follow come from patent publication US5965697, “Disaggregated mutant human RANTES” (British Biotech Pharmaceuticals Limited, dated 1999).

Changes are numbered by the printed parent chain. Values joined by “and” are separate entries in the source; they are usually repeats but may differ in a detail not shown here. Equal values may be shown once.

For series [1], the target named is wild-type human RANTES (hRANTES) (human). Description: sedimentation equilibrium AUC in PBS, 0.1 mg/ml; self-association (monomer 7850 Da).
For series [2], the target named is T-cell receptor complex (tyrosine kinase pathway) on CD3+ Jurkat cells and cultured human T lymphocytes (human). Particulars: scale: % of cells expressing the cell surface marker.
In series [3] the target is cell-surface proteoglycans. The series can be described thus: radioligand binding, 0.125 nM 125I-hRANTES on CHO cells, filter harvest.
The target of series [4] is cell-surface proteoglycans. The series can be described thus: radioligand binding, 0.2 nM 125I-hRANTES E66>S on CHO cells, filter harvest.
Series [5] deals with T-cell receptor complex (tyrosine kinase pathway) on CD3+ Jurkat cells and cultured human T lymphocytes (human).
Series [6] deals with the molecule itself. Description: sedimentation equilibrium AUC in PBS, 0.5 mg/ml; self-association. How it is done:
Mutagenesis of pERM1 was performed according to the method of Kunkel et al., (Methods in Enzymology, 154: 367–382; 1987). The oligonucleotides BB-35875 (SEQ ID NO. 14; 5'-[…] […] GTGG-3') and BB-37015 (SEQ ID No. 15; 5'-[…] ACATTGA-CAA […]-3') were used to construct the hRANTES Glu26>Ala and Glu66>Ser variant genes respectively. A combination of both BB-35875 and BB-37015 was used to […]. The samples were spun at 15,000 r.p.m., 25° C. for 18 hours to reach equilibrium. Final solute distributions were recorded at 235 nm, 280 nm and 295 nm as a function of radius. The scan was repeated after a further three hours of centrifugation to confirm that equilibrium had been achieved. The final solute distribution ASCII data were captured and the Microcal Origin software for the Beckman XLA analytical ultracentrifuge was used to fit the data to a model assuming a single ideal species (Ideal1) to provide an estimate of the weight average molecular weight.

The target of series [7] is G-protein coupled receptors (GPCRs) through which hRANTES acts.

For “wild-type human RANTES (hRANTES) (ligand)”, in series [1], the Average molecular weight by AUC (Da) was over 160000 Da.

B1: wild-type human RANTES (hRANTES) (ligand)
chain: SPYSSDTTPCCFAYIARPLPRAHIKEYFYTSGKCSNPAVVFVTRKNRQVCANPEKKWVREYINSLEMS
For the molecule B1, the % of cells expressing the cell surface marker (CD69, CD11b, CD11c) on cultured human T lymphocytes, 5 µM in series [2] is 99.1. In addition, the total counts bound in series [3] was 5730 cpm.

B2: hRANTES E66>S (ligand)
chain: B1 chain with E66S
Take B2: the total counts bound in series [4] turned out to be 18300 cpm. For the same molecule, in series [2], the % of cells expressing the cell surface marker (CD69, CD11b, CD11c) on cultured human T lymphocytes, 5 µM amounted to 0.39. Moreover, in series [5], the calcium mobilisation in CD3+ Jurkat cells was found to be 200 fold. Also, in series [6], the “Average molecular weight by AUC (Da)” value was 14000 Da.

B3: hRANTES E26>A (ligand)
chain: B1 chain with E26A
Regarding B3, the IC50 of p24 antigen production by PBMC infected with HIV-1 RR in series [7] is 28 nM and 0.22 µg/ml. The “Average molecular weight by AUC (Da)” value in series [6] stood at 33000 Da.

B4: hRANTES E26>A E66>S (ligand)
chain: B1 chain with E26A, E66S
On to B4, for which the “Average molecular weight by AUC (Da)” value in series [6] was determined as 15000 Da.
